Here are results for nine molecules from patent US11994512B2, “Single-cell genomic methods to generate ex vivo cell systems that recapitulate in vivo biology with improved fidelity” (Massachusetts Institute of Technology, priority 2018, dated 2024).

To fix the notation:
B1: O88554 (protein, UniProt O88554 1-559, looked up)
chain: MAPRRQRSGSGRRVLNEAKKVDNGNKATEDDSPPGKKMRTCQRKGPMAGGKDADRTKDNRDSVKTLLLKGKAPVDPECAAKLGKAHVYCEGDDVYDVMLNQTNLQFNNNKYYLIQLLEDDAQRNFSVWMRWGRVGKTGQHSLVTCSGDLNKAKEIFQKKFLDKTKNNWEDRENFEKVPGKYDMLQMDYAASTQDESKTKEEETLKPESQLDLRVQELLKLICNVQTMEEMMIEMKYDTKRAPLGKLTVAQIKAGYQSLKKIEDCIRAGQHGRALVEACNEFYTRIPHDFGLSIPPVIRTEKELSDKVKLLEALGDIEIALKLVKSERQGLEHPLDQHYRNLHCALRPLDHESNEFKVISQYLQSTHAPTHKDYTMTLLDVFEVEKEGEKEAFREDLPNRMLLWHGSRLSNWVGILSHGLRVAPPEAPITGYMFGKGIYFADMSSKSANYCFASRLKNTGLLLLSEVALGQCNELLEANPKAQGLLRGKHSTKGMGKMAPSPAHFITLNGSTVPLGPASDTGILNPEGYTLNYNEFIVYSPNQVRMRYLLKIQFNFLQLW
modifications: full-length
B2: O88310 (protein, UniProt O88310 1-313, looked up)
chain: MTQLGFLLFIMVATRGCSAAEENLDTNRWGNSFFSSLPRSCKEIKQEHTKAQDGLYFLRTKNGVIYQTFCDMTTAGGGWTLVASVHENNMRGKCTVGDRWSSQQGNRADYPEGDGNWANYNTFGSAEAATSDDYKNPGYFDIQAENLGIWHVPNKSPLHNWRKSSLLRYRTFTGFLQHLGHNLFGLYKKYPVKYGEGKCWTDNGPALPVVYDFGDARKTASYYSPSGQREFTAGYVQFRVFNNERAASALCAGVRVTGCNTEHHCIGGGGFFPEGNPVQCGDFASFDWDGYGTHNGYSSSRKITEAAVLLFYR
modifications: full-length
B3: O88803 (protein, UniProt O88803 1-151, looked up)
chain: MIPTTILISAALLSSALAGPWANICASKSSNEIRTCDSYGCGQYSAQRTQRHHPGVDVLCSDGSVVYAPFTGKIVGQEKPYRNKNAINDGIRLSGRGFCVKIFYIKPIKYKGSIKKGEKLGTLLPLQKIYPGIQSHVHVENCDSSDPTAYL
modifications: full-length
B4: P06728 (protein, UniProt P06728 1-395, looked up)
chain: MFLKAAVLTLALVAITGTRAEVTSDQVANVVWDYFTQLSNNAKEAVEQFQKTDVTQQLSTLFQDKLGDASTYADGVHNKLVPFVVQLSGHLAQETERVKEEIKKELEDLRDRMMPHANKVTQTFGENMQKLQEHLKPYAVDLQDQINTQTQEMKLQLTPYIQRMQTTIKENVDNLHTSMMPLATNLKDKFNRNMEELKGHLTPRANELKATIDQNLEDLRRSLAPLTVGVQEKLNHQMEGLAFQMKKNAEELQTKVSAKIDQLQKNLAPLVEDVQSKVKGNTEGLQKSLEDLNRQLEQQVEEFRRTVEPMGEMFNKALVQQLEQFRQQLGPNSGEVESHLSFLEKSLREKVNSFMSTLEKKGSPDQPQALPLPEQAQEQAQEQAQEQVQPKPLES
modifications: full-length
B5: O88513 (protein, UniProt O88513 1-206, looked up)
chain: MNLSMKQKQEGAQENVKNSPVPRRTLKMIQPSADGSLVGRENELPKGLFKRKLWDDQLASQTSSCGPEANENKDVGDLTQEAFDLISKENPSSQYWKEVAEQRRKALYEALKENEKLHKEIEQKDSEIARLRKENKDLAEVAEHVQYMAEVIERLSNEPLDNFESPDSQEFDSEEEAVEYSELEDSGAGTCAEETVSSSTDARPCT
modifications: full-length
B6: O88451 (protein, UniProt O88451 1-316, looked up)
chain: MWLYLVALVGLWTLLRFFRERQVVSHLQDKYVFITGCDSGFGNLLARQLDRRGMRVLAACLTEKGAEQLRNKTSDRLETVILDVTKTESIVAATQWVKERVGNRGLWGLVNNAGICVFAINEWLKKEDFANILDVNLLGMIEVTLSMLPLVRKARGRVVNISSSMGRVSLCGGGYCISKYGVEAFSDSLRREISYFGVKVAIIEPGGFRTNVSNYERLSHSIEKLWDQTSSEVKEVYDKNFLDSYIKAIQSLTDTCSDDLSVVTDCMEHALTACHPRTRYSAGWDAKLFYLPLSYMPTFLVDAMLYWSSVKPAQAL
modifications: full-length
B7: P04184 (protein, UniProt P04184 1-233, looked up)
chain: MSYINLPTVLPSSPSKTRGQIQVILGPMFSGKSTELMRRVRRFQIAQYKCLVIKYAKDTRYSNSFSTHDRNTMDALPACMLRDVTQESLGVAVIGIDEGQFFPDIVDFCEMMANEGKTVIVAALDGTFQRKAFGSILNLVPLAESVVKLTAVCMECFREAAYTKRLGLEKEVEVIGGADKYHSVCRLCYFKKSSAQTAGSDNKNCLVLGQPGEALVVRKLFASQQVLQYNSAN
modifications: full-length
B8: P02772 (protein, UniProt P02772 1-605, looked up)
chain: MKWITPASLILLLHFAASKALHENEFGIASTLDSSQCVTEKNVLSIATITFTQFVPEATEEEVNKMTSDVLAAMKKNSGDGCLESQLSVFLDEICHETELSNKYGLSGCCSQSGVERHQCLLARKKTAPASVPPFQFPEPAESCKAHEENRAVFMNRFIYEVSRRNPFMYAPAILSLAAQYDKVVLACCKADNKEECFQTKRASIAKELREGSMLNEHVCSVIRKFGSRNLQATTIIKLSQKLTEANFTEIQKLALDVAHIHEECCQGNSLECLQDGEKVMTYICSQQNILSSKIAECCKLPMIQLGFCIIHAENGVKPEGLSLNPSQFLGDRNFAQFSSEEKIMFMASFLHEYSRTHPNLPVSVILRIAKTYQEILEKCSQSGNLPGCQDNLEEELQKHIEESQALSKQSCALYQTLGDYKLQNLFLIGYTRKAPQLTSAELIDLTGKMVSIASTCCQLSEEKWSGCGEGMADIFIGHLCIRNEASPVNSGISHCCNSSYSNRRLCITSFLRDETYAPPPFSEDKFIFHKDLCQAQGKALQTMKQELLINLVKQKPELTEEQLAAVTADFSGLLEKCCKAQDQEVCFTEEGPKLISKTRDALGV
modifications: full-length
B9: P03958 (protein, UniProt P03958 1-352, looked up)
chain: MAQTPAFNKPKVELHVHLDGAIKPETILYFGKKRGIALPADTVEELRNIIGMDKPLSLPGFLAKFDYYMPVIAGCREAIKRIAYEFVEMKAKEGVVYVEVRYSPHLLANSKVDPMPWNQTEGDVTPDDVVDLVNQGLQEGEQAFGIKVRSILCCMRHQPSWSLEVLELCKKYNQKTVVAMDLAGDETIEGSSLFPGHVEAYEGAVKNGIHRTVHAGEVGSPEVVREAVDILKTERVGHGYHTIEDEALYNRLLKENMHFEVCPWSSYLTGAWDPKTTHAVVRFKNDKANYSLNTDDPLIFKSTLDTDYQMTKKDMGFTEEEFKRLNINAAKSSFLPEEEKKELLERLYREYQ
modifications: full-length

The subject of the first experiment is intracellular proteome of ENR+CD and ENR organoids. In words: LC-MS/MS TMT proteomics of ENR+CD versus ENR organoids. In kind it is cell-based, C57BL/6 mice. To be noted: protein abundance, ENR+CD versus ENR organoids; aggregate of the four sample pairs. The source says:
Because PCs are highly secretory, protein-rich cells, Applicants sought to assess the total intracellular proteome between conditions through liquid chromatography mass spectrometry (LC-MS/MS)-based proteomics. Applicants quantified relative protein abundance across eight samples using isobaric mass tag labeling from four ENR and four ENR+CD samples (M1-1 through M2-2, first digit denotes biological donor, second digit denotes technical replicate) (FIG. 3A). Samples were processed and analyzed in a single 10-plex by LC-MS/MS (FIG. 9A).
To affirm the reproducibility of the associated proteins in the ENR+CD-enriched proteome, Applicants performed relative quantification within differentiation sets.
Mass spectrometry proteomics sample preparation, sequencing, and quantification. Organoid cell pellets were isolated from Matrigel with mechanical dissociation and washed (cold PBS 5X) to remove residual extracellular protein. Proteins were extracted from cell pellets with 8 M urea (Sigma), reduced with 5 mM DTT (Thermo Fisher Pierce) for 45 minutes, alkylated with 10 mM IAA (Sigma) for 45 minutes in the dark, and double digested with both Lysyl Endopeptidase “LysC” (Wako) and trypsin (Promega) overnight at RT. A small aliquot of cellular lysate was removed from each sample for protein quantification via the Pierce™ BCA Protein Assay Kit (Pierce). After proteolytic digestion, the samples were quenched using formic acid to a final concentration of 1.0% and subsequently desalted on 10 mg OASIS HLB solid phase columns (Waters).
The peptides were labeled with TMT-10 isobaric mass tag reagent according to manufacturer's instructions (ThermoFisher Scientific). The peptides were labeled at a 1:8 ratio of peptide to TMT reagent, followed by 1-hour incubation at RT with bench top shaking at 850 rpm. After incubation, a […] of labeled tryptic peptide was removed from each labeled condition, desalted with C18 stage tips, and analyzed via LC-MS/MS using a Thermo Fisher Q Exactive Plus Hybrid Mass Spectrometer (QE-Plus) coupled to a Thermo Fisher EASY-nLC 1000 liquid chromatograph to ensure isobaric label incorporation >95%. An additional 1.0 μg of labeled tryptic peptide was removed from each channel, mixed together, desalted on a C18 stage tip, and analyzed via LC-MS to ensure equal relative protein loads. During these quality control steps, the labeled peptides were stored, unquenched at −80° C.
For the molecule B1, the “Average logFC” value is reported as −1.403.

Turning to B2, the “Average logFC” value is 1.203.

On to B3, for which the “Average logFC” value came to 1.443.

For B4, the “Average logFC” value was −1.57.

With B5, the “Average logFC” value was −1.337.

For B6, the “Average logFC” value was −1.416.

Regarding B7, the “Average logFC” value is reported as −1.187.

Regarding B8, the “Average logFC” value was −1.438.

Take B9: the “Average logFC” value is 1.34.

Still in this experiment, the particulars now being: protein abundance, ENR+CD versus ENR organoids; replicate M1-1; log2 ratio.
On to B1, for which the “M1-1 Log2 Median Normalized” value was −1.403.

With B2, the “M1-1 Log2 Median Normalized” value was determined as 1.445.

As to B3, the “M1-1 Log2 Median Normalized” value turned out to be 1.692.

Take B4: the “M1-1 Log2 Median Normalized” value is listed as −1.343.

Turning to B5, the “M1-1 Log2 Median Normalized” value was −1.6.

In the case of B6, the “M1-1 Log2 Median Normalized” value is −1.202.

As for B7, the “M1-1 Log2 Median Normalized” value is given as −1.268.

As for B8, the “M1-1 Log2 Median Normalized” value was −1.616.

Regarding B9, the “M1-1 Log2 Median Normalized” value was 1.339.

The experiment is the same for the next values; noted with them: protein abundance, ENR+CD versus ENR organoids; replicate M1-2; log2 ratio.
B1: the “M1-2 Log2 Median Normalized” value is given as −0.933.

As to B2, the “M1-2 Log2 Median Normalized” value turned out to be 1.239.

Take B3: the “M1-2 Log2 Median Normalized” value is listed as 1.063.

B4: the “M1-2 Log2 Median Normalized” value was −2.171.

In the case of B5, the “M1-2 Log2 Median Normalized” value was −1.306.

For B6, the “M1-2 Log2 Median Normalized” value is listed as −1.565.

As for B7, the “M1-2 Log2 Median Normalized” value is −1.033.

Turning to B8, the “M1-2 Log2 Median Normalized” value is −1.696.

For B9, the “M1-2 Log2 Median Normalized” value is 0.074.

The same experiment, now with this note: protein abundance, ENR+CD versus ENR organoids; replicate M2-1; log2 ratio.
B1: the “M2-1 Log2 Median Normalized” value is reported as −1.4925.

Regarding B2, the “M2-1 Log2 Median Normalized” value was determined as 0.9545.

As to B3, the “M2-1 Log2 Median Normalized” value was 1.4425.

As for B4, the “M2-1 Log2 Median Normalized” value is on record as −1.8605.

As to B5, the “M2-1 Log2 Median Normalized” value is reported as −0.8435.

Consider B6, for which the “M2-1 Log2 Median Normalized” value is −2.2355.

As to B7, the “M2-1 Log2 Median Normalized” value is −1.0175.

Regarding B8, the “M2-1 Log2 Median Normalized” value was −1.1235.

With B9, the “M2-1 Log2 Median Normalized” value stood at 1.5985.

Still in this experiment, the particulars now being: protein abundance, ENR+CD versus ENR organoids; replicate M2-2; log2 ratio.
On to B1, for which the “M2-2 Log2 Median Normalized” value is reported as −1.465.

For B2, the “M2-2 Log2 Median Normalized” value is given as 1.175.

B3: the “M2-2 Log2 Median Normalized” value was determined as 1.463.

With B4, the “M2-2 Log2 Median Normalized” value is recorded as −0.907.

As for B5, the “M2-2 Log2 Median Normalized” value is reported as −1.599.

For B6, the “M2-2 Log2 Median Normalized” value is reported as −0.662.

With B7, the “M2-2 Log2 Median Normalized” value was −1.428.

As to B8, the “M2-2 Log2 Median Normalized” value is given as −1.316.

For B9, the “M2-2 Log2 Median Normalized” value is given as 1.501.

Staying with this experiment, now noted: up = enriched in ENR+CD, down = enriched in ENR; FDR<0.05 and log fold change cut-off.
For B1, the change result is recorded as “down”.

As for B2, the change result is “up”.

For the molecule B3, the change result is “up”.

As to B4, the change entry is reported as “down”.

B5: the change result is given as “down”.

For B6, the change entry was “down”.

With B7, the change entry was “down”.

On to B8, for which the change entry is “down”.

Regarding B9, the change entry was “up”.
